This is an account of results in PMC10522483.

This assay addresses S. lophii 70S ribosome (Spraguea lophii (endogenous in spores)). Briefly: cryo-EM structure; electron cryo-tomography and subtomogram averaging of ribosomes in situ in polar tubes of spores germinated on the grid; dimer map 14.3 Å (C2 symmetry, 1,191 particles), half-dimer map 10.8 Å; single-particle atomic model fitted into the maps.

S. lophii 70S ribosome (complex): the percent of ribosome particles in 100S dimers came to 80% and the stoichiometry N was found to be 2.
